Positions count from the first letter of the chain named. Where two headings read alike, the source gives them in different places.
Experiments:
[1] = biological target: T1, cynomolgus monkey BDCA-2 on cells (Jurkat-cynoBDCA-2 cells; cynomolgus monkey pDCs) (cynomolgus monkey, UniProt A0A2K5UWP4 1-212); test: flow cytometry on Jurkat-cynoBDCA-2 cells
T1 construct: whole, on cells
T1 sequence: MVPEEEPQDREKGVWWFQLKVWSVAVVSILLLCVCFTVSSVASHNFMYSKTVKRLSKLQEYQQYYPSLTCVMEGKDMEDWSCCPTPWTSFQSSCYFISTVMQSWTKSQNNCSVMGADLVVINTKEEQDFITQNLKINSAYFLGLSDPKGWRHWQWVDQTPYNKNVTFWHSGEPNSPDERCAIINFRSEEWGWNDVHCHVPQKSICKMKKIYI

[2] = biological target: T2, human BDCA-2 on cells (Jurkat-hBDCA-2 cells; human pDCs; human PBMCs) (human, UniProt Q8WTT0 1-213); test: flow cytometry on Jurkat-hBDCA-2 cells
T2 construct: whole, on cells; also called CD303; CLEC4C
T2 sequence (looked up): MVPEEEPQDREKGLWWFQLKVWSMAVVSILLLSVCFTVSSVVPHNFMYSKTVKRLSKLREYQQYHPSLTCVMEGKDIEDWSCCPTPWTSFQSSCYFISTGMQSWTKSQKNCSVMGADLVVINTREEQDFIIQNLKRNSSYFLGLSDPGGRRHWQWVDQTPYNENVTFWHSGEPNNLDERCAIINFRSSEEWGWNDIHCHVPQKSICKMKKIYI

[3] = biological target: T2, human BDCA-2 on cells (Jurkat-hBDCA-2 …); test: flow cytometry on Jurkat-hBDCA-2 cells; remark: listed apart in the source
[4] = biological target: T2, human BDCA-2 on cells (Jurkat-hBDCA-2 …); test: cell-based or functional assay
[5] = biological target: T1, cynomolgus monkey BDCA-2 on cells …; test: flow cytometry on Jurkat-cynoBDCA-2 cells; remark: listed apart in the source
[6] = biological target: T3, human CLEC4D (human, UniProt Q8WXI8 39-215, limits assumed); test: ELISA, coated protein 1 µg/ml
T3 sequence (looked up): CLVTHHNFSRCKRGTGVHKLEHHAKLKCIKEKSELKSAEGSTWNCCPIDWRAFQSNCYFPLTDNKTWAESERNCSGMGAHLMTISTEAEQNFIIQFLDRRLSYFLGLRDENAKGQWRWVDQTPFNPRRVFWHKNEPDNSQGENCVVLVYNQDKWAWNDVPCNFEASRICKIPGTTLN

[7] = biological target: T4, human CLEC4E (human, UniProt Q9ULY5 41-219, limits assumed); test: ELISA, coated protein 1 µg/ml
T4 sequence (looked up): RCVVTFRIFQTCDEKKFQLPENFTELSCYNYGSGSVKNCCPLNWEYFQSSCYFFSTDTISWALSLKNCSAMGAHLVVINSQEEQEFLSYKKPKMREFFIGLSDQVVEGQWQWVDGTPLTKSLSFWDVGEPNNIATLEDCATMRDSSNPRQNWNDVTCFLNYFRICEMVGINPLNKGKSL

[8] = biological target: T5, human CLEC6A (human, UniProt Q6EIG7 42-209, limits assumed); test: ELISA, coated protein 1 µg/ml
T5 sequence (looked up): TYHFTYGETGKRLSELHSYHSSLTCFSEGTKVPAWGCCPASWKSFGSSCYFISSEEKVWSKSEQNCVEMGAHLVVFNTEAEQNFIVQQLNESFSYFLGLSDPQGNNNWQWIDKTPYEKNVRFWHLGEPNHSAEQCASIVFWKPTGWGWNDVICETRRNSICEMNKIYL

[9] = biological target: T6, human CLEC4A (human, UniProt Q9UMR7 70-237, limits assumed); test: ELISA, coated protein 1 µg/ml
T6 sequence (looked up): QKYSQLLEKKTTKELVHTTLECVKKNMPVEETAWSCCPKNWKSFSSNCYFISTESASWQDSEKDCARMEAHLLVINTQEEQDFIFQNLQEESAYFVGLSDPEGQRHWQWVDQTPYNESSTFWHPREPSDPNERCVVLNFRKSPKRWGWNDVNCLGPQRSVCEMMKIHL

[10] = biological target: T7, Human BDCA-2 protein (soluble, Octet analyte) (human, UniProt Q8WTT0 45-213, limits assumed); test: BLI (Octet Red96e), antibody on anti-human IgG sensor, human BDCA-2 protein in solution
T7 construct: Soluble protein used as analyte in BLI
T7 sequence (looked up): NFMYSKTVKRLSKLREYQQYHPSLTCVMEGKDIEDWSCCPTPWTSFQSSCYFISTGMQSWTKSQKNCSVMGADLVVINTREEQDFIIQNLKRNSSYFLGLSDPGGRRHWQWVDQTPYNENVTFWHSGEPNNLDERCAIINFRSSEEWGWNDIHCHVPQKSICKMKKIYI

[11] = biological target: T2, human BDCA-2 on cells (Jurkat-hBDCA-2 …); test: cell-based or functional assay; remark: listed apart in the source

B1: 164C11B8_hzH1L1_hIgG1 (antibody, V domains shown)
VH: EVQLLESGGGLVQPGGSLRLSCAASGFTFSTYTMSWVRQAPGKGLEWVSTINSGGDNTYYPDSVKGRFTISRDNSKNTLYLQMNSLRAEDTAVYYCATYRPYYYGSVLDYWGQGTTVTVSS
VL: DIVMTQSPDSLAVSLGERATINCKASQSVDYDGNSYVNWYQQKPGQPPKLLIYGASNLESGVPDRFSGSGSGTDFTLTISSLQAEDVAVYYCQQSDEDPWTFGGGTKVEIKR
EC50 [1]: 0.158 µg/mL | EC50 [2]: 0.0429 µg/mL

B2: 164C11B8_hzH4L1_hIgG1 (antibody, V domains shown)
VH: B1 VH with F27I, G44R, S49A
VL: B1 VL
EC50 [1]: 0.31 µg/mL | EC50 [2]: 0.191 µg/mL

B3: 164C11B8_hzH2L1_hIgG1 (antibody, V domains shown)
VH: B1 VH with S49A
VL: B1 VL
EC50 [1]: 0.252 µg/mL | EC50 [2]: 0.104 µg/mL

B4: 164C11B8_hzH3L1_hIgG1 (antibody, V domains shown)
VH: B1 VH with F27I, S49A
VL: B1 VL
EC50 [2]: 0.0675 µg/mL

B5: 17G6A2 (murine hybridoma monoclonal antibody) (antibody, V domains shown)
VH: EVQLVESGGDLVKPGGSLKLSCAASGFTFSSYGMSWVRQTPDKRLEWVATISSGDSYTYYPDSVKGRFTISRDNAKNTLYLQMSSLKSEDTAMYYCARQLYYSYGYYFDYWGQGTTLTVSS
VL: DIVLTQSPASLAVSLGQRATISCRASESVSFHGTHLMHWYQQKPGQPPKLLIYAASNLESGVPARFSGSGSETDFTLNIHPVEEEDAATYFCQQSIEDPPTFGGGTKLEIK
notes: also called hybridoma 17G6A2; hybridoma antibody 17G6A2
EC50 [3]: 0.0968 µg/mL | EC50, inhibition of CpGA-induced type I interferon (IFNα) production in human PBMC cells [4]: 0.0542 µg/mL | EC50 [5]: 0.107 µg/mL

B6: 17G6A2_hzH2L5_hIgG1 (antibody, V domains shown)
VH: EVQLVESGGGLVKPGGSLRLSCAASGFTFSSYGMSWVRQAPGKGLEWVATISSGDSYTYYPDSVKGRFTISRDNAKNSLYLQMNSLRAEDTAVYYCARQLYYSYGYYFDYWGQGTTVTVSS
VL: DIVLTQSPASLAVSPGQRATITCRASESVSFHGTHLMHWYQQKPGQPPKLLIYAASNLESGVPARFSGSGSGTDFTLTINPVEAEDTANYYCQQSIEDPPTFGGGTKVEIKR
notes: Humanized, human IgG1/kappa (hzVH02 + hzVL05)
EC50 [1]: 0.0943 µg/mL | binding result [6]: no binding (tested: 10 µg/ml) | binding result [7]: no binding (tested: 10 µg/ml) | binding result [8]: no binding (tested: 10 µg/ml) | binding result [9]: no binding (tested: 10 µg/ml) | EC50 [2]: 0.18 µg/mL | Kd [10]: 3.2 nM | koff [10]: 0.000567 s⁻¹ | kon [10]: 176000 M⁻¹ s⁻¹ | EC50, inhibition of CpGA-induced type I interferon (IFNα) production in human PBMC cells [11]: 0.0014 µg/mL

B7: 17G6A2_hzH1L8_hIgG1 (antibody, V domains shown)
VH: B6 VH with A49S
VL: B6 VL with G72E, E85N, T87A
notes: Humanized, human IgG1/kappa (hzVH01 + hzVL08); also called 17G6A2_hzHL8_hIgG1
EC50 [1]: 0.0781 µg/mL | binding result [6]: no binding (tested: 10 µg/ml) | binding result [7]: no binding (tested: 10 µg/ml) | binding result [8]: no binding (tested: 10 µg/ml) | binding result [9]: no binding (tested: 10 µg/ml) | EC50 [2]: 0.0442 µg/mL | Kd [10]: 6.3 nM | koff [10]: 0.000872 s⁻¹ | kon [10]: 138000 M⁻¹ s⁻¹ | EC50, inhibition of CpGA-induced type I interferon (IFNα) production in human PBMC cells [11]: 0.0011 µg/mL

B8: 17G6A2_hzH3L6_hIgG1 (antibody, V domains shown)
VH: B6 VH with G44R
VL: B6 VL with E85N, T87A
notes: Humanized, human IgG1/kappa (hzVH03 + hzVL06)
EC50 [1]: 0.0663 µg/mL | binding result [6]: no binding (tested: 10 µg/ml) | binding result [7]: no binding (tested: 10 µg/ml) | binding result [8]: no binding (tested: 10 µg/ml) | binding result [9]: no binding (tested: 10 µg/ml) | EC50 [2]: 0.0831 µg/mL | EC50, inhibition of CpGA-induced type I interferon (IFNα) production in human PBMC cells [11]: 0.0017 µg/mL

B9: 17G6A2_hzH2L7_hIgG1 (antibody, V domains shown)
VH: B6 VH
VL: B6 VL with G72E
notes: Humanized, human IgG1/kappa (hzVH02 + hzVL07)
EC50 [1]: 0.0988 µg/mL | binding result [6]: no binding (tested: 10 µg/ml) | binding result [7]: no binding (tested: 10 µg/ml) | binding result [8]: no binding (tested: 10 µg/ml) | binding result [9]: no binding (tested: 10 µg/ml) | EC50 [2]: 0.0608 µg/mL | Kd [10]: 1.8 nM | koff [10]: 0.000311 s⁻¹ | kon [10]: 174000 M⁻¹ s⁻¹ | EC50, inhibition of CpGA-induced type I interferon (IFNα) production in human PBMC cells [11]: 0.0011 µg/mL

B10: 17G6A2_hzH2L6_hIgG1 (antibody, V domains shown)
VH: B6 VH
VL: B6 VL with E85N, T87A
notes: Humanized, human IgG1/kappa (hzVH02 + hzVL06)
EC50 [1]: 0.106 µg/mL | binding result [6]: no binding (tested: 10 µg/ml) | binding result [7]: no binding (tested: 10 µg/ml) | binding result [8]: no binding (tested: 10 µg/ml) | binding result [9]: no binding (tested: 10 µg/ml) | EC50 [2]: 0.0701 µg/mL | Kd [10]: 3 nM | koff [10]: 0.000309 s⁻¹ | kon [10]: 101000 M⁻¹ s⁻¹ | EC50, inhibition of CpGA-induced type I interferon (IFNα) production in human PBMC cells [11]: 0.0017 µg/mL

B11: 17G6A2_hzH2L8_hIgG1 (antibody, V domains shown)
VH: B6 VH
VL: B6 VL with G72E, E85N, T87A
notes: Humanized, human IgG1/kappa (hzVH02 + hzVL08)
EC50 [1]: 0.0383 µg/mL | binding result [6]: no binding (tested: 10 µg/ml) | binding result [7]: no binding (tested: 10 µg/ml) | binding result [8]: no binding (tested: 10 µg/ml) | binding result [9]: no binding (tested: 10 µg/ml) | EC50 [2]: 0.0222 µg/mL | Kd [10]: 1.7 nM | koff [10]: 0.000261 s⁻¹ | kon [10]: 154000 M⁻¹ s⁻¹ | EC50, inhibition of CpGA-induced type I interferon (IFNα) production in human PBMC cells [11]: 0.0011 µg/mL

B12: 17G6A2_hzH3L8_hIgG1 (antibody, V domains shown)
VH: B6 VH with G44R
VL: B6 VL with G72E, E85N, T87A
notes: Humanized, human IgG1/kappa (hzVH03 + hzVL08)
EC50 [1]: 0.0688 µg/mL | binding result [6]: no binding (tested: 10 µg/ml) | binding result [7]: no binding (tested: 10 µg/ml) | binding result [8]: no binding (tested: 10 µg/ml) | binding result [9]: no binding (tested: 10 µg/ml) | EC50 [2]: 0.0456 µg/mL | EC50, inhibition of CpGA-induced type I interferon (IFNα) production in human PBMC cells [11]: 0.0011 µg/mL

B13: 17G6A2_hzH3L7_hIgG1 (antibody, V domains shown)
VH: B6 VH with G44R
VL: B6 VL with G72E
notes: Humanized, human IgG1/kappa (hzVH03 + hzVL07)
EC50 [1]: 0.0975 µg/mL | binding result [6]: no binding (tested: 10 µg/ml) | binding result [7]: no binding (tested: 10 µg/ml) | binding result [8]: no binding (tested: 10 µg/ml) | binding result [9]: no binding (tested: 10 µg/ml) | EC50 [2]: 0.0583 µg/mL | EC50, inhibition of CpGA-induced type I interferon (IFNα) production in human PBMC cells [11]: 0.0011 µg/mL

B14: 17G6A2_hzH3L5_hIgG1 (antibody, V domains shown)
VH: B6 VH with G44R
VL: B6 VL
notes: Humanized, human IgG1/kappa (hzVH03 + hzVL05)
EC50 [1]: 0.101 µg/mL | binding result [6]: no binding (tested: 10 µg/ml) | binding result [7]: no binding (tested: 10 µg/ml) | binding result [8]: no binding (tested: 10 µg/ml) | binding result [9]: no binding (tested: 10 µg/ml) | EC50 [2]: 0.066 µg/mL | EC50, inhibition of CpGA-induced type I interferon (IFNα) production in human PBMC cells [11]: 0.0014 µg/mL

— EP4775675A1 (Shanghai Hongcheng Biopharmaceutical Co., Ltd., dated 2026)
